The values below are quoted from earlier work in publication PMC7212196.

As a reminder, the pKd is the negative decadic logarithm of the Kd, by convention in mol/L.

The target in this data set is soluble IL-6 receptor (Homo sapiens) (UniProt P08887).

pKd: −log10 of the molar value.

Sequence of IL-6 (P05231 30-212): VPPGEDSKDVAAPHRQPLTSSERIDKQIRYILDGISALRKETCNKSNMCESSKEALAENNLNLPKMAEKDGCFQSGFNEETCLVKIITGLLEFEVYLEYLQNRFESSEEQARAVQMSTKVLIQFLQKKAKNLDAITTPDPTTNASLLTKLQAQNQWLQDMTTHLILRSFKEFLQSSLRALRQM
Sequence of UniProt P08887 (P08887 20-355): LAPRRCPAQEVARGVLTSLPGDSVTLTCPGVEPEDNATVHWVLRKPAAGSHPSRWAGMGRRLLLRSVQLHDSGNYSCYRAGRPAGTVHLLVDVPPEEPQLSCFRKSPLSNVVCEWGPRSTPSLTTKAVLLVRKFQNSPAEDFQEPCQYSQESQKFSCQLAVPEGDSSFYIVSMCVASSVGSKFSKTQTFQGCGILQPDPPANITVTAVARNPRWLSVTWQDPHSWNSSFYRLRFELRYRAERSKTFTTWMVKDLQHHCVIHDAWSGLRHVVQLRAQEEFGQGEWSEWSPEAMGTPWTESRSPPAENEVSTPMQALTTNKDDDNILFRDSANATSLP

Turning to IL-6 (from UniProt P05231), the pKd was 8.30.
